The text below walks through data of the supplement of paper PMC12042874.

± gives the uncertainty stated by the source.

A short description of this data set: amyloid nucleation score (Sup35N fusion, yeast selection) (log enrichment); library NNK3; higher = more nucleation; inactive = no reads after selection. The procedure, abridged: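 Using DiMSum, nucleation scores were taken as the log enrichment of output over input reads, centred on the mode score of non-aggregating sequences. The input and output reads came from Illumina sequencing of plasmid inserts, with sequences under 100 input reads excluded. The yeast were psi-negative, expressed Sup35N fused to peptides of 20 random codons, were induced with 100 μM copper sulfate for 24 hours, and were grown 7 days at 30°C on medium lacking adenine and uracil.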
IEYWFASRTFWSCRNMVRH showed an amyloid nucleation score of -0.342 ± 0.98.

Regarding GINDLISSALNNSRRLRTVG, the amyloid nucleation score result was “inactive”.

In the case of RLSGKTPCAK, the amyloid nucleation score result is “inactive”.

As to CVDQT, the amyloid nucleation score result is “inactive”.

For the substance QGISQPRHCFY, the amyloid nucleation score entry was “inactive”.

GHCEYVVCYVNCRFVQMSVR had an amyloid nucleation score of 1.65 ± 0.093.

For TVSICSGVSRVWKHLHYMMV, the amyloid nucleation score entry is “inactive”.

TCNNMYCWV yielded an amyloid nucleation score of 2.3 ± 0.075.

SFRSAVRCTS: the amyloid nucleation score result is “inactive”.

Substance GYMSLLHSKPPFWSNP had an amyloid nucleation score of 0.465 ± 0.64.

Substance EWPVNTNVYFCFMYTANFNT had an amyloid nucleation score of 2.63 ± 0.055.

Take KSKHTVMRWSLYSRRIMLVF: the amyloid nucleation score result was “inactive”.

As to LLHPYARVDMRVQ, the amyloid nucleation score result was “inactive”.

For the substance ALKDGIFFFHA, the amyloid nucleation score entry was “inactive”.

As to IALGNVRISRYRVLWAYLSS, the amyloid nucleation score result was “inactive”.

In turn, RLTTNTIVKDSISRFRN returned an amyloid nucleation score of 0.183 ± 0.29.

As for SYYPRIRRLGWECSWTPMLQ, the amyloid nucleation score entry was “inactive”.

In the case of FCVTQWRAQRASHLYFMPGE, the amyloid nucleation score entry is “inactive”.

In the case of DRQRWSRLCAGQSLYNCGKC, the amyloid nucleation score entry is “inactive”.

On to FLDVALLKSMNCSASREVGV, for which the amyloid nucleation score result was “inactive”.

Turning to TLLHDSDVGMQLSGSQRFFS, the amyloid nucleation score result was “inactive”.

As for NGNFSVRFSVKS, the amyloid nucleation score result was “inactive”.

On to NSSTDFS, for which the amyloid nucleation score entry is “inactive”.

Regarding FMRGTVLKTRNYRFRQAHEE, the amyloid nucleation score result is “inactive”.

FSGTIGILFFMTWSTVLPWG: the amyloid nucleation score entry was “inactive”.

For the substance SNMSMMSYYAGRDPRPVSFL, the amyloid nucleation score entry was “inactive”.

Consider ELRSL, for which the amyloid nucleation score entry was “inactive”.

Regarding GLGYWAKGSHLWVLLRLLNH, the amyloid nucleation score entry is “inactive”.

For the substance SFFVT, the amyloid nucleation score result was “inactive”.

GFGGFGRVDNSLCIKAPCCV gave an amyloid nucleation score of 0.127 ± 0.29.

In the case of VIVRRSQFTELICLFYNFTM, the amyloid nucleation score result is “inactive”.

For the substance VFLNQCLSGVMGLEGVSLDR, the amyloid nucleation score result was “inactive”.

Regarding TNRIMNPVYDILWSGMGQPC, the amyloid nucleation score result is “inactive”.

For the substance FNSYKGNVSFAGW, the amyloid nucleation score is -0.155 ± 1.4.

Turning to YSSLLWCKIES, the amyloid nucleation score entry is “inactive”.

In the case of VIYLKTRWNSWCPAGGVLLC, the amyloid nucleation score result is “inactive”.

As to HCFIDNKMLPYVMCYPDKKR, the amyloid nucleation score entry is “inactive”.

For RAFFDTSCGMSLDPSLIPTG, the amyloid nucleation score result is “inactive”.

With GYSRG, the amyloid nucleation score entry is “inactive”.

On to LMLANVNAA, for which the amyloid nucleation score result was “inactive”.

The substance CCGGFIVMQQAGGSPIDGQG returned an amyloid nucleation score of 0.29 ± 0.2.

As to IDIESL, the amyloid nucleation score entry was “inactive”.

Regarding FYSFFILSIGSSIPCLRSHM, the amyloid nucleation score entry was “inactive”.

As for DAYNVYMMSSRPAHYQGHYL, the amyloid nucleation score entry is “inactive”.

As to RKNSDLTYSNSVNLTCACRT, the amyloid nucleation score was 0.434 ± 0.18.

With VGNGYTMSG, the amyloid nucleation score entry is “inactive”.

For the substance TFLRQGMNSDISYLVRFGGN, the amyloid nucleation score is -0.057 ± 0.47.

Regarding TNLLM, the amyloid nucleation score result is “inactive”.

In the case of IENQSRCLLTNVATVN, the amyloid nucleation score entry is “inactive”.

Turning to LMQFLAQLTSLSLSLLEVIW, the amyloid nucleation score entry was “inactive”.

As to VSFYSSCVWIDARSCDYCYF, the amyloid nucleation score came to 2.79 ± 0.058.

QSSCGIMQPYRQWMPYSTYG: the amyloid nucleation score entry is “inactive”.

For the substance KPCHASVET, the amyloid nucleation score result was “inactive”.

For QGSLVKFS, the amyloid nucleation score entry is “inactive”.

In the case of LSRDGVFVPPTSRSYHPRLK, the amyloid nucleation score result was “inactive”.

For the substance INNAPFNLPLANK, the amyloid nucleation score entry is “inactive”.

Turning to VEKAIAFGNF, the amyloid nucleation score result is “inactive”.

With HNRLSQVTDQLGRLVSRSLR, the amyloid nucleation score result is “inactive”.

As to CMIFGVSLAYVCGCSLYGVG, the amyloid nucleation score entry was “inactive”.

On to WVFSSNVRKYMRALRRRYSD, for which the amyloid nucleation score entry is “inactive”.

Turning to IKFVPRA, the amyloid nucleation score entry was “inactive”.

Take LDLLMGV: the amyloid nucleation score entry is “inactive”.

For the substance FNGICRWTCYSCS, the amyloid nucleation score is 2.09 ± 0.08.

Consider LTRDVCFN, for which the amyloid nucleation score is 0.312 ± 0.54.

Regarding TLNRLTKKHCFGNFWLYSAW, the amyloid nucleation score result was “inactive”.

Consider LKIRKFLTFKFSSALIIVVC, for which the amyloid nucleation score result is “inactive”.

Turning to ITFLDWKLTTTG, the amyloid nucleation score entry is “inactive”.

TVDFLSLVCVVIFRGTDWRR showed an amyloid nucleation score of -1.03 ± 1.1.

Turning to CDSYKVYRVLNKQGWFCRGS, the amyloid nucleation score entry is “inactive”.

As for GLSKKKECGFLLARIVVVVV, the amyloid nucleation score entry is “inactive”.

Regarding FHTLLLCSDVSSARWFADWF, the amyloid nucleation score entry is “inactive”.

Take MVIAPGEKTNNLSSAHRWSN: the amyloid nucleation score entry is “inactive”.

With GCKMVGRICSDIICSVGVME, the amyloid nucleation score amounted to 0.988 ± 0.16.

Regarding GFESPRGFSSVFSIVYGFWA, the amyloid nucleation score worked out at 0.855 ± 0.2.

For the substance ECRYIPLYREFTRRVSMSGL, the amyloid nucleation score entry was “inactive”.

In the case of SLMPMNYYGVTINVRWSLIQ, the amyloid nucleation score was found to be 0.554 ± 0.45.

The substance MCNFCQLFFTLLITSLFKLG displayed an amyloid nucleation score of 0.807 ± 0.18.

In the case of RAVYSGVSMD, the amyloid nucleation score result was “inactive”.

For the substance VLSQRVPQMHMTNGVTEASV, the amyloid nucleation score result is “inactive”.

For the substance NNCYRMGFLCPTNRQTMEG, the amyloid nucleation score entry was “inactive”.

For TLFVA, the amyloid nucleation score entry was “inactive”.

VSLLNITTVMSSPRIQGKHV gave an amyloid nucleation score of 1.01 ± 0.12.

Consider LNNSEWSLS, for which the amyloid nucleation score entry is “inactive”.

Turning to YLVLKDTRYAYTLLRSMLSA, the amyloid nucleation score result is “inactive”.

As to RIFWHQCGYGSIRLWGQLDR, the amyloid nucleation score was -0.531 ± 0.83.

Substance TVYELYVDLAVRRSAFAFLP had an amyloid nucleation score of 0.744 ± 0.15.

For the substance WDFGPEVLSE, the amyloid nucleation score result is “inactive”.

For SPARRLAAFGFVVL, the amyloid nucleation score is -0.385 ± 1.2.

Consider VPNEVFISYLV, for which the amyloid nucleation score entry is “inactive”.

In turn, MHLEYGVFIDARATYML returned an amyloid nucleation score of 1.49 ± 0.12.

For the substance QLCFGVMLRCSCCGKQVWEK, the amyloid nucleation score came to 1.84 ± 0.1.

Take YVGYIDRWSSCYKVFWV: the amyloid nucleation score result was “inactive”.

As for LHTMGMSVGGMAMNKIDCPN, the amyloid nucleation score result was “inactive”.

With MCYALMRTTWCGKLKIVLSG, the amyloid nucleation score entry is “inactive”.

Take RGESHVCLCYL: the amyloid nucleation score came to 0.761 ± 0.17.

With ARLVYFFLYGLSCRMHCLCW, the amyloid nucleation score result is “inactive”.

In the case of IKLFLIHTTPSFPNTREHDL, the amyloid nucleation score result is “inactive”.

Consider WGMSRLFVYFPVILLMISLT, for which the amyloid nucleation score entry is “inactive”.

Consider RYVLR, for which the amyloid nucleation score entry was “inactive”.
